Results published in US20070036786A1 (published 2007).
Substitutions are numbered along the chain they refer to.

B1: chimeric 3G8 antibody (ch3G8VH/ch3G8VL) (antibody, V domains shown)
VH: QVTLKESGPGILQPSQTLSLTCSFSGFSLRTSGMGVGWIRQPSGKGLEWLAHIWWDDDKRYNPALKSRLTISKDTSSNQVFLKIASVDTADTATYYCAQINPAWFAYWGQGTLVTVSS
VL: DTVLTQSPASLAVSLGQRATISCKASQSVDFDGDSFMNWYQQKPGQPPKLLIYTTSNLESGIPARFSASGSGTDFTLNIHPVEEEDTATYYCQQSNEDPYTFGGGTKLEIK
notes: Mouse 3G8 variable domains (VH FR4 ala to ser) on human Cγ1 and Cκ constant regions; also called ch3G8-γ1
B2: hu3G8VH-1/hu3G8VL-1 (antibody, human IgG1, kappa)
heavy: not shown
light: DIVMTQSPDSLAVSLGERATINCKASQSVDFDGDSFMNWYQQKPGQPPKLLIYTTSNLESGVPDRFSGSGSGTDFTLTISSLQAEDVAVYYCQQSNEDPYTFGQGTKLEIKRTVAAPSVFIFPPSDEQLKSGTASVVCLLNNFYPREAKVQWKVDNALQSGNSQESVTEQDSKDSTYSLSSTLTLSKADYEKHKVYACEVTHQGLSSPVTKSFNRGEC
notes: Heavy chain Hu3G8VH-1G1, light chain Hu3G8VL-1K; also called Hu3G8-1.1
B3: hu3G8VH-22/hu3G8VL-1 (antibody)
VH: QVTLRESGPALVKPTQTLTLTCTFSGFSLSTSGVGVGWIRQPPGKALEWLAHIWWDDDKRYSPSLKSRLTISKDTSKNQVVLTMTNMDPVDTATYYCARINPAYFAYWGQGTLVTVS
light: B2 light
notes: VH fused to human Cγ1 constant region (glycosylated form)
B4: hu3G8VH-20/hu3G8VL-1 (antibody)
VH: QVTLRESGPALVKPTQTLTLTCTFSGFSLSTSGVGVGWIRQPPGKALEWLAHIWWDDDKRYSPSLKSRLTISKDTSKNQVVLTMTNMDPVDTATYYCARINPAWFAYWGQGTLVTVSS
light: B2 light
notes: VH fused to human Cγ1 constant region
B5: hu3G8VH-34/hu3G8VL-1 (antibody)
VH: B4 VH with V2I, R5K, A10T, W104Y
light: B2 light
notes: as for B4
B6: hu3G8VH-31/hu3G8VL-1 (antibody)
VH: B4 VH with V2I, R5K, A10T
light: B2 light
notes: as for B4
B7: hu3G8VH-43/hu3G8VL-1 (antibody)
VH: B4 VH with V2I, R5K, A10T, S72T, W104Y
light: B2 light
notes: as for B4
B8: hu3G8VH-2/hu3G8VL-1 (antibody)
VH: B4 VH with R5K, V34M, S62N, S64A
light: B2 light
notes: as for B4
B9: hu3G8VH-18/hu3G8VL-1 (antibody)
VH: B4 VH with V34M, S62N, S64A, R99H
light: B2 light
notes: as for B4
B10: hu3G8VH-40/hu3G8VL-1 (antibody)
VH: B4 VH with V2I, R5K, A10T, W54F
light: B2 light
notes: as for B4
B11: hu3G8VH-35/hu3G8VL-1 (antibody)
VH: B4 VH with V2I, R5K, A10T, R99Q, W104Y
light: B2 light
notes: as for B4
B12: hu3G8VH-3/hu3G8VL-1 (antibody)
VH: B4 VH with S30R, V34M, S62N, S64A
light: B2 light
notes: as for B4
B13: hu3G8VH-30/hu3G8VL-1 (antibody)
VH: B4 VH with R99Q, W104Y, A106D
light: B2 light
notes: as for B4
B14: hu3G8VH-37/hu3G8VL-1 (antibody)
VH: B4 VH with V2I, R5K, A10T, H52L, R99K, W104Y
light: B2 light
notes: as for B4
B15: hu3G8VH-5/hu3G8VL-1 (antibody)
VH: B4 VH with V34M, S62N, S64A, R99Q
light: B2 light
notes: VH fused to human Cγ1 constant region (glycosylated form); also called Hu3G8-5.1
B16: hu3G8VH-45/hu3G8VL-1 (antibody)
VH: B4 VH with V2I, R5K, A10T, S72T, R99Q, W104Y, A106D
light: B2 light
notes: as for B4
B17: hu3G8VH-27/hu3G8VL-1 (antibody)
VH: B4 VH with R99K, W104Y, A106D
light: B2 light
notes: as for B4
B18: hu3G8VH-44/hu3G8VL-1 (antibody)
VH: B4 VH with V2I, R5K, A10T, S72T, R99H, W104Y, A106D
light: B2 light
notes: as for B4
B19: hu3G8VH-4/hu3G8VL-1 (antibody)
VH: B4 VH with V34M, S62N, S64A, R99Q, A106D
light: B2 light
notes: as for B4
B20: hu3G8VH-14/hu3G8VL-1 (antibody)
VH: B4 VH with V34M, D56N, S62N, S64A
light: B2 light
notes: as for B4
B21: hu3G8VH-17/hu3G8VL-1 (antibody)
VH: B4 VH with V34M, S62N, S64A, R99A
light: B2 light
notes: as for B4
B22: hu3G8VH-28/hu3G8VL-1 (antibody)
VH: B4 VH with R99A, W104Y, A106D
light: B2 light
notes: as for B4
B23: hu3G8VH-12/hu3G8VL-1 (antibody)
VH: B4 VH with V34M
light: B2 light
notes: as for B4
B24: hu3G8VH-16/hu3G8VL-1 (antibody)
VH: B4 VH with V34M, S62N, S64A, R99K
light: B2 light
notes: as for B4
B25: hu3G8VH-23/hu3G8VL-1 (antibody)
VH: B4 VH with R99K, W104Y
light: B2 light
notes: as for B4
B26: hu3G8VH-26/hu3G8VL-1 (antibody)
VH: B4 VH with R99Q, W104Y
light: B2 light
notes: as for B4
B27: hu3G8VH-29/hu3G8VL-1 (antibody)
VH: B4 VH with R99H, W104Y, A106D
light: B2 light
notes: as for B4
B28: hu3G8VH-36/hu3G8VL-1 (antibody)
VH: B4 VH with V2I, R5K, A10T, H52L, R99Q, W104Y, A106D
light: B2 light
notes: as for B4
B29: hu3G8VH-8/hu3G8VL-1 (antibody)
VH: B4 VH with V34M, S62N, S64A, W104Y
light: B2 light
notes: as for B4
B30: hu3G8VH-19/hu3G8VL-1 (antibody)
VH: B4 VH with V34M, S62N, S64A, R99Q, W104Y
light: B2 light
notes: as for B4
B31: hu3G8VH-6/hu3G8VL-1 (antibody)
VH: B4 VH with S62N, S64A, A106D
light: B2 light
notes: as for B4
B32: hu3G8VH-42/hu3G8VL-1 (antibody)
VH: B4 VH with V2I, R5K, A10T, S72T
light: B2 light
notes: as for B4
B33: hu3G8VH-25/hu3G8VL-1 (antibody)
VH: B4 VH with R99H, W104Y
light: B2 light
notes: as for B4
B34: hu3G8VH-24/hu3G8VL-1 (antibody)
VH: B4 VH with R99A, W104Y
light: B2 light
notes: as for B4

Biological target: T1, soluble human CD16A (sCD16A) (human, UniProt P08637 17-203)
T1 construct: CD16A truncated just prior to the transmembrane region, expressed in HEK-293; The last seven residues come from vector pCDNA3.1; also called soluble form of human CD16A
Experiment: ELISA, captured sCD16A
Experimental: The plate was washed and dilutions of recombinant antibodies starting at 0.5 μg/ml in PBS-T-BSA were then added and incubated for 1 hr at room temp. Binding of recombinant antibodies to the captured sCD16A was then measured using an anti-human IgG-HRP conjugate and TMB substrate. After stopping color development using dilute sulfuric acid, the plate was read at 450 nm.

T1 sequence (P08637 other isoform, or with tags, fused parts or gaps limits assumed): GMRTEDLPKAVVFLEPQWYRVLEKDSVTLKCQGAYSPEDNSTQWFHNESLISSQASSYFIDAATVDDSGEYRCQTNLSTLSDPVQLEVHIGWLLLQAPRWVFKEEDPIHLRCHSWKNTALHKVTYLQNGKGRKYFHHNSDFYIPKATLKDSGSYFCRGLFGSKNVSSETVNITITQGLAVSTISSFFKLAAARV

Binder	binding result
B1	binds
B2	binds
B3	binds
B4	binds
B5	binds
B6	binds
B7	binds
B8	binds
B9	binds
B10	binds
B11	binds
B12	binds
B13	binds
B14	binds
B15	binds
B16	binds
B17	binds

Binder	binding result
B18	binds
B19	binds
B20	binds
B21	binds
B22	binds
B23	binds
B24	binds
B25	binds
B26	binds
B27	binds
B28	binds
B29	binds
B30	binds
B31	binds
B32	binds
B33	binds
B34	binds
